# Where no end group is shown, it is not given here. The star is where a group is joined. Biotin = O=C1N[C@H]2[C@H](CS[C@H]2CCCCC(=O)*)N1
# T1: Tiam2 PHCCEx domain, alanine mutant Lys627 (mouse, UniProt Q6ZPF3 500-757, alanine mutant Lys627)
# T1 sequence (looked up): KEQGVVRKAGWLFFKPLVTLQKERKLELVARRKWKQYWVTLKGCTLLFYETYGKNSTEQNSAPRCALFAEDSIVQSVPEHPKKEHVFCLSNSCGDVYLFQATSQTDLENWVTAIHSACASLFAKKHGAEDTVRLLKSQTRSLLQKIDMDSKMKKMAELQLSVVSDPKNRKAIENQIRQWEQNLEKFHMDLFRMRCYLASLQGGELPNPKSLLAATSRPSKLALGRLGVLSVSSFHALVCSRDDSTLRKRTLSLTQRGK
# T2: Tiam2 PHCCEx domain, alanine mutant Lys624 (mouse, UniProt Q6ZPF3 500-757, alanine mutant Lys624)
# T2 sequence (looked up): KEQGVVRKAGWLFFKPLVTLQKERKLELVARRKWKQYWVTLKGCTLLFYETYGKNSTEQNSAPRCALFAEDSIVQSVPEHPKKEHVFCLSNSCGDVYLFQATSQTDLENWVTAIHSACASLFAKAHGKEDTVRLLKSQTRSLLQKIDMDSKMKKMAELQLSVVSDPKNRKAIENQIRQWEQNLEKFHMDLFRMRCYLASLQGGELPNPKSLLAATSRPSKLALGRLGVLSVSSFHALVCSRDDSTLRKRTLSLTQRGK
# T3: Tiam2 PHCCEx domain, alanine mutant Arg632 (mouse, UniProt Q6ZPF3 500-757, alanine mutant Arg632)
# T3 sequence (looked up): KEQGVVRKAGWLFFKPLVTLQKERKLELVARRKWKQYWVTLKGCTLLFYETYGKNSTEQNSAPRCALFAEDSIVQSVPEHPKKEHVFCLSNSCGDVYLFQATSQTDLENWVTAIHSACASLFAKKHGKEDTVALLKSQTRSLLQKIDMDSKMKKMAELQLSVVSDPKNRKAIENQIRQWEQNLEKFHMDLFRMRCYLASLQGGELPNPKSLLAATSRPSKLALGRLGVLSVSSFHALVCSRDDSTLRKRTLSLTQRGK
# T4: Tiam2 PHCCEx domain, alanine mutant Arg716 (R716A) (mouse, UniProt Q6ZPF3 500-757, R716A)
# T4 sequence (looked up): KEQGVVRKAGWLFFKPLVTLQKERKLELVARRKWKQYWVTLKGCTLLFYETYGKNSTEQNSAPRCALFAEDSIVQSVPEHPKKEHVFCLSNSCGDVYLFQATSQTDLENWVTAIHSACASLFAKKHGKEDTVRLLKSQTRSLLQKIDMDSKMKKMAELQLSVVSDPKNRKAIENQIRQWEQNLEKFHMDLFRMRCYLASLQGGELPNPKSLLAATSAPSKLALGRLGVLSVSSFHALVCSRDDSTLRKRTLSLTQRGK
# T5: Tiam2 PHCCEx domain, alanine mutant Arg693 (R693A) (mouse, UniProt Q6ZPF3 500-757, R693A)
# T5 sequence (looked up): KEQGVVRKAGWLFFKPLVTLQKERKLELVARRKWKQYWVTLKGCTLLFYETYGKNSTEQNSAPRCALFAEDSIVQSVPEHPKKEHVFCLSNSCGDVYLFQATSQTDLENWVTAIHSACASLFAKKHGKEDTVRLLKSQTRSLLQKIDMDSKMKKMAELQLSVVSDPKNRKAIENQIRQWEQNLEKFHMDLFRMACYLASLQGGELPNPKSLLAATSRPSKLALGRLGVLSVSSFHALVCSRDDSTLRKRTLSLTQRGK
# T6: Tiam2 PHCCEx domain, alanine mutant Lys650 (mouse, UniProt Q6ZPF3 500-757, alanine mutant Lys650)
# T6 sequence (looked up): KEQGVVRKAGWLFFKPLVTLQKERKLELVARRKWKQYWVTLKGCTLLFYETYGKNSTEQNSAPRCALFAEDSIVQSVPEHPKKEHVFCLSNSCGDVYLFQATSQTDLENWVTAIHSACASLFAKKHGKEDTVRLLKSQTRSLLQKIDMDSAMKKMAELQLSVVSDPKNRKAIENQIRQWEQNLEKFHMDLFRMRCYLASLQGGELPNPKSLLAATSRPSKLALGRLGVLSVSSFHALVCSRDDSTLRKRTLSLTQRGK
# T7: Tiam2 PHCCEx domain, alanine mutant Lys653 (mouse, UniProt Q6ZPF3 500-757, alanine mutant Lys653)
# T7 sequence (looked up): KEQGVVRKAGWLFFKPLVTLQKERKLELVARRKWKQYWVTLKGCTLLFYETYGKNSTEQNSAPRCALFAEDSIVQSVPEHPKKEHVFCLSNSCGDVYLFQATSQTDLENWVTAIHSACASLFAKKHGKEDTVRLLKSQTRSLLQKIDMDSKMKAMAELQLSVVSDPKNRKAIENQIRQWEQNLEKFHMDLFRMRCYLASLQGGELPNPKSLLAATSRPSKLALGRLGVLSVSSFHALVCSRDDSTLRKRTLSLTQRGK
# T8: Tiam2 PHCCEx domain, alanine mutant Arg691 (mouse, UniProt Q6ZPF3 500-757, alanine mutant Arg691)
# T8 sequence (looked up): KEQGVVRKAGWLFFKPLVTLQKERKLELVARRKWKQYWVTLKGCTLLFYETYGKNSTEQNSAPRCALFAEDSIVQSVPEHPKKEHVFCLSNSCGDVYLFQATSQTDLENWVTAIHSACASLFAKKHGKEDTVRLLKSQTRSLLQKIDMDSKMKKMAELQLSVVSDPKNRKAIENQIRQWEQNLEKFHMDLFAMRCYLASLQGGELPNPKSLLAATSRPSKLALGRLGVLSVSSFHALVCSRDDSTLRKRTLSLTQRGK
# T9: Tiam2 PHCCEx domain (PH-CC-Ex region, residues 500-757) (mouse, UniProt Q6ZPF3 500-757)
# T9 sequence (looked up): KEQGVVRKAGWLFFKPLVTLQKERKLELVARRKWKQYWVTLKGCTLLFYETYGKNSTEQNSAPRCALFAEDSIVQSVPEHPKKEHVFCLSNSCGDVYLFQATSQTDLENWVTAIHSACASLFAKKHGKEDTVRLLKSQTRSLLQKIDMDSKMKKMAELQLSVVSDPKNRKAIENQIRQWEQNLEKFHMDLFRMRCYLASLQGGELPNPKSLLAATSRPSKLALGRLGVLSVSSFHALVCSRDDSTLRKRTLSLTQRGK
# T10: Tiam1 PHCCEx domain (PH-CC-Ex region, residues 429-702) (mouse, UniProt Q60610 429-702)
# T10 sequence (looked up): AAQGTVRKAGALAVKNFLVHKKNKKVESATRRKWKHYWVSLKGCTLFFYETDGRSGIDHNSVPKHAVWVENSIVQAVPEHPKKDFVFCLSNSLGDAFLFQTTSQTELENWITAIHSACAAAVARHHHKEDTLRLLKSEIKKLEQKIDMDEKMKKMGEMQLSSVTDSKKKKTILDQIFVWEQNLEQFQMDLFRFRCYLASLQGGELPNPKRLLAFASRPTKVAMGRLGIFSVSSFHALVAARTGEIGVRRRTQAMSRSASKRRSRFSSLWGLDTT
# B1: CD44 acidic peptide comprising 24 residues (327-350) (peptide, UniProt P15379-2 327-350, looked up)
# peptide: Biotin-SQEMVHLVNKEPSETPDQCMTADE
# B2: Par3 acidic cluster peptide (mouse residues 931-960) (peptide, UniProt Q99NH2 931-960, looked up)
# peptide: KPMVDDDDEGMETLEEDTEESSRSGRESVS
# modifications: biotin on the N-terminus
# B3: NMDAR loop I peptide (residues 591-610) (peptide)
# peptide: not shown
# modifications: biotin on the N-terminus
# B4: HA-tagged full-length Tiam1 with a double mutation (R622A and R645A) (natural protein, UniProt Q60610 1-1591, looked up)
# chain: MGNAESQNVDHEFYGEKHASLGRKHTSRSLRLSHKTRRTRHASSGKAIHRNSEVSTRSSSTPSIPQSLAENGLEPFSQEGALDDFGDPIWVDRVDMGLRPVSYTDSSVTPSVDGSIVLTAASVQSMPDSEESRLYGDDATYLAEGGRRQCPYTSNGPTFMETASFKKKRSKSADIWREDSLEFSLSDLSQEHLTSNEEILGSAEEKDCEEARGMETEASPRQLSTCQRANSLGDLYAQKNSGVKANGGPRNRFSSYCRNLVSDIPDLAKHKMPPAAAEETPPYSNYNTLPCRKSHCLSEGATNPQISLSKSMQGRRAKTTQDVNTGEGSEFADSGIEGATTDTDLLSRRSNATNSSYSPPTGRAFVGSDSGSSSTGDRARQGVYENFRRELEMSTTNSESLEEAGSAHSDEQSSGTLSSPGQSDILLTAAQGTVRKAGALAVKNFLVHKKNKKVESATRRKWKHYWVSLKGCTLFFYETDGRSGIDHNSVPKHAVWVENSIVQAVPEHPKKDFVFCLSNSLGDAFLFQTTSQTELENWITAIHSACAAAVARHHHKEDTLRLLKSEIKKLEQKIDMDEKMKKMGEMQLSSVTDSKKKKTILDQIFVWEQNLEQFQMDLFRFACYLASLQGGELPNPKRLLAFASAPTKVAMGRLGIFSVSSFHALVAARTGEIGVRRRTQAMSRSASKRRSRFSSLWGLDTTSKKKQGRPTINQVFGEGTDAVKRSLEGIFDDTVPDGKREKEVVLPSVHQHNPDCDIWVHEYFTPSWFCLPNNQPALTVVRPGDTARDTLELICKTHQLDHSAHYLRLKFLMENRVQFYIPQPEEDIYELLYKEIEICPKVTQNIHIEKSDAAADNYGFLLSSVDEDGIRRLYVNSVKETGLASKKGLKAGDEILEINNRAAGTLNSSMLKDFLSQPSLGLLVRTYPEPEGGVELLENPPHRVDGPVDLGESPLAFLTSNPGHSLSSEQGSSAETAPEEGEGPDLESSDETDHSSKSTEQVAAFCRSLHEMSPSDSSPSPQDATSPQLATTRQLSDADKLRKVICELLETERTYVKDLNCLMERYLKPLQKETFLTQDELDVLFGNLTEMVEFQVEFLKTLEDGVRLVPDLEKLEKVDQFKKVLFSLGGSFLYYADRFKLYSAFCASHTKVPKVLVKAKTDTAFKAFLDAQNPRQQHSSTLESYLIKPIQRVLKYPLLLRELFALTDAESEEHYHLDVAIKTMNKVASHINEMQKIHEEFGAVFDQLIAEQTGEKKEVADLSMGDLLLHTSVIWLNPPASLGKWKKEPELAAFVFKTAVVLVYKDGSKQKKKLVGSHRLSIYEEWDPFRFRHMIPTEALQVRALPSADAEANAVCEIVHVKSESEGRPERVFHLCCSSPESRKDFLKSVHSILRDKHRRQLLKTESLPSAQQYVPFGGKRLCALKGARPAMSRAVSAPSKSLGRRRRRLARNRFTIDSDAISASSPEKEPQQPAGGGDTDRWVEEQFDLAQYEEQDDIKETDILSDDDEFCESLKGASVDRDLQEQLQAASISQRARGRRTLDSHASRMTQLKKQAALSGINGGLESASEEVIWVRREDFAPSRKLNTEI
# Assays:
# [1] = molecular target: T1, Tiam2 PHCCEx domain, alanine mutant …; test: SPR
# [2] = molecular target: T2, Tiam2 PHCCEx domain, alanine mutant …; test: SPR
# [3] = molecular target: T3, Tiam2 PHCCEx domain, alanine mutant …; test: SPR
# [4] = molecular target: T4, Tiam2 PHCCEx domain, alanine mutant …; test: SPR
# [5] = molecular target: T5, Tiam2 PHCCEx domain, alanine mutant …; test: SPR
# [6] = molecular target: T6, Tiam2 PHCCEx domain, alanine mutant …; test: SPR
# [7] = molecular target: T7, Tiam2 PHCCEx domain, alanine mutant …; test: SPR
# [8] = molecular target: T8, Tiam2 PHCCEx domain, alanine mutant …; test: SPR
# [9] = molecular target: T9, Tiam2 PHCCEx domain (PH-CC-Ex region, …); test: SPR
# [10] = molecular target: T10, Tiam1 PHCCEx domain (PH-CC-Ex region, …); test: SPR
# [11] = molecular target: GFP-tagged full-length Par3 (UniProt Q9Z340 1-1337); test: co-IP
# Chain of GFP-tagged full-length Par3 (Q9Z340 whole entry): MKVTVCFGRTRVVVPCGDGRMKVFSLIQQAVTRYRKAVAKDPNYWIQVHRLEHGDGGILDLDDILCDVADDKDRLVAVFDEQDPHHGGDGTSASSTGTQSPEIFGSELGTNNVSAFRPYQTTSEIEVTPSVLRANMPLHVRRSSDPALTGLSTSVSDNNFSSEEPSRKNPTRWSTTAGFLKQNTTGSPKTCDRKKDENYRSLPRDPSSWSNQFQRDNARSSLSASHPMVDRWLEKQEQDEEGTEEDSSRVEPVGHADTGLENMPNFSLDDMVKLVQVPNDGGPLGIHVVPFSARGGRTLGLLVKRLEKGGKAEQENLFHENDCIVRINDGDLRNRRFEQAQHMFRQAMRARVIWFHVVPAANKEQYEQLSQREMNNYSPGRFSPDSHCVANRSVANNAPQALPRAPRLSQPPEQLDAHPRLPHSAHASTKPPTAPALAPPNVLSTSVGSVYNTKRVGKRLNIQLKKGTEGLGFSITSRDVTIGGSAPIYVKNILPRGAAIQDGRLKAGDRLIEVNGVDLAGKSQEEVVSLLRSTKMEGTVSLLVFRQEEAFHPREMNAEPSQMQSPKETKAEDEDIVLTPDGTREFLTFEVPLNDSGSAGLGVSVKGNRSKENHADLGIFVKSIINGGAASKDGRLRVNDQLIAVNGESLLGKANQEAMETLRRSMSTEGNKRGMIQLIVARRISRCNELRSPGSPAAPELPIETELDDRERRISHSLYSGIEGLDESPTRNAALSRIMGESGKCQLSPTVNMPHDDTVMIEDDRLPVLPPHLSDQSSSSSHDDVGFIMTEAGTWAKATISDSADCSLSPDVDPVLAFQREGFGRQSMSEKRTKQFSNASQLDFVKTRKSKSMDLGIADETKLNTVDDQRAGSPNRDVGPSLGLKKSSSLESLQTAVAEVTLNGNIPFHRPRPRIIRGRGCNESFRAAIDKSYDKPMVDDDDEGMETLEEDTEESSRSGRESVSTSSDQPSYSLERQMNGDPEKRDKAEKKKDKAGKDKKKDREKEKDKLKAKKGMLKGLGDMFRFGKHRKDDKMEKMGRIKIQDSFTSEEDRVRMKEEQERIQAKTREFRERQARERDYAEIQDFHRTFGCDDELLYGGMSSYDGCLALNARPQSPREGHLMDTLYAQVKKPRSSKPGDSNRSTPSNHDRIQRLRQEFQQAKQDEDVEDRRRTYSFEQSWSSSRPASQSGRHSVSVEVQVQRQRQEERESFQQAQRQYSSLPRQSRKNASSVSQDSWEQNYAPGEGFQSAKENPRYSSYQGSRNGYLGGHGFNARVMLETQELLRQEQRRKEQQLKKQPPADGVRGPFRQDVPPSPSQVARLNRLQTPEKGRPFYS
binder,measurement,setting,value
B1,binding result,[1],binds
same,binding result,[2],binds
same,binding result,[3],binds
same,binding result,[4],binds
same,binding result,[5],binds
same,binding result,[6],binds
same,binding result,[7],binds
same,binding result,[8],binds
same,Kd,[9],920 nM
same,binding result,[10],binds
B2,Kd,[9],380 nM
B3,binding result,[10],binds
B4,Par3 binding relative to wild-type Tiam1,[11],~65%
